Literature values, collected in publication PMC2925223.

Test system: His64
Experiment: not stated
Settings: His64 in the inward orientation in the crystal structures

Which pKa does the source give for “Carbonic anhydrase II (HCA II) Y7F (Homo sapiens; Y7F)” here?
Its pKa is “near 6.0”.
